Assay results as given in article PMC7403387.

Target: Neural cell adhesion molecule (NCAM1), endogenous in Vero cells (African green monkey (endogenous in Vero))

Question: How did the decrease in ZIKV attachment to Vero cells (RT-qPCR) with NCAM1 ECD protein or anti-NCAM1 antibody turn out when “Zika virus (ZIKV) E protein on the surface of purified mature virions, labelled with the maleimide-diazirine-biotin probe (natural protein)” was run?
Answer: 40%
